Measurements: publication PMC10786891, “Massively parallel profiling of RNA-targeting CRISPR-Cas13d”
Residue numbers refer to the chain shown, from its start. In names and notes the source's numbering stands.

T1: EsCas13d, nuclease-dead (Eubacterium siraeum, UniProt B0MS50, R295A;H300A;R849A;H854A)
T1 sequence: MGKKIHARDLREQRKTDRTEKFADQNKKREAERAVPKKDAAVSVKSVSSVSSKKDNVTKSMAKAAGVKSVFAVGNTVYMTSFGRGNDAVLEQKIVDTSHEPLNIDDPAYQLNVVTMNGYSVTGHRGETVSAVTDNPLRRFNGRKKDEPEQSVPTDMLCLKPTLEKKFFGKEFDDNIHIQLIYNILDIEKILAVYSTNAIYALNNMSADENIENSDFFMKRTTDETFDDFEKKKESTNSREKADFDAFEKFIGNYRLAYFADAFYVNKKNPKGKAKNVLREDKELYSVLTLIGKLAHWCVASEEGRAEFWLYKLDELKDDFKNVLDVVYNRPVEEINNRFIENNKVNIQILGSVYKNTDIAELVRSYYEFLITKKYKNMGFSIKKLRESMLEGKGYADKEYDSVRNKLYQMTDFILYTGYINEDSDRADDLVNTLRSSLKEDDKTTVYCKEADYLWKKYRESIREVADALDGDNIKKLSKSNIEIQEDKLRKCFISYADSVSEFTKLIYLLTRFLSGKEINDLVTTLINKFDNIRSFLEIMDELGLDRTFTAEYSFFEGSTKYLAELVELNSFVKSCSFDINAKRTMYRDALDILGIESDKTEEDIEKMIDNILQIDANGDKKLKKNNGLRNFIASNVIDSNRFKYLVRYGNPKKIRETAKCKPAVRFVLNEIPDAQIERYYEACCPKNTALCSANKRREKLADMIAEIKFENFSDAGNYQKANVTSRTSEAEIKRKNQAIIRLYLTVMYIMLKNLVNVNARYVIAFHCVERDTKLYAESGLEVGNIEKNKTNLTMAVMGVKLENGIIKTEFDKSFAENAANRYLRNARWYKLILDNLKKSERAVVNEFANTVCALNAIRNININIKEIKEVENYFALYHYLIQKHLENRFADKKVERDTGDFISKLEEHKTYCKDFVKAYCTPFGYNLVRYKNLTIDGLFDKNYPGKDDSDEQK

B1: target 2 MT 5'PFS GUU 3'PFS UGU (mixed)
RNA 1: CACCCGUGCAAAAUUGCAGGGGUCUAAAACCUUCUCCAAAUUGUUUCAUCCU
RNA 2: GGGAAUGGAUCCACAUCUACGAAUUCGUUAGGAUGAAACAAUUUGGAGAAGUGUAGAUCGGAAGAGCACACGU
B2: target 1 C4G,C7U (mixed)
RNA 1: CACCCGUGCAAAAAUGCAGGGGUCUAAAACUGAGCGGAUAACCUCUCUAUGG
RNA 2: GGGAAUGGAUCCACAUCUACGAAUUCGUACCAUAGAGAGGUUAUUCGGUCACCGAGAUCGGAAGAGCACACGU
B3: target 2 MT 5'PFS AAA 3'PFS AGC (mixed)
RNA 1: B1 RNA 1
RNA 2: B1 RNA 2 with G27A, U28A, U29A, U52A, U54C
B4: target 2 MT 5'PFS UUG 3'PFS UUA (mixed)
RNA 1: B1 RNA 1
RNA 2: B1 RNA 2 with G27U, U29G, G53U, U54A
B5: target 2 MT 5'PFS AAC 3'PFS CGG (mixed)
RNA 1: B1 RNA 1
RNA 2: B1 RNA 2 with G27A, U28A, U29C, U52C, U54G
B6: target 2 MT 5'PFS AAC 3'PFS CGC (mixed)
RNA 1: B1 RNA 1
RNA 2: B1 RNA 2 with G27A, U28A, U29C, U52C, U54C
B7: target 2 MT 5'PFS UUU 3'PFS CAG (mixed)
RNA 1: B1 RNA 1
RNA 2: B1 RNA 2 with G27U, U52C, G53A, U54G
B8: target 2 MT 5'PFS UCU 3'PFS AGC (mixed)
RNA 1: B1 RNA 1
RNA 2: B1 RNA 2 with G27U, U28C, U52A, U54C
B9: target 2 MT 5'PFS UUU 3'PFS CAA (mixed)
RNA 1: B1 RNA 1
RNA 2: B1 RNA 2 with G27U, U52C, G53A, U54A
B10: target 2 MT 5'PFS AGG 3'PFS CGA (mixed)
RNA 1: B1 RNA 1
RNA 2: B1 RNA 2 with G27A, U28G, U29G, U52C, U54A
B11: target 2 MT 5'PFS UUU 3'PFS CAC (mixed)
RNA 1: B1 RNA 1
RNA 2: B1 RNA 2 with G27U, U52C, G53A, U54C
B12: target 2 MT 5'PFS UUU 3'PFS CAU (mixed)
RNA 1: B1 RNA 1
RNA 2: B1 RNA 2 with G27U, U52C, G53A
B13: target 1 insA 3' of 8,insU 3' of 2 (mixed)
RNA 1: B2 RNA 1
RNA 2: GGGAAUGGAUCCACAUCUACGAAUUCGUACCAUAGAGAGGUUAUACCGCUCUACCGAGAUCGGAAGAGCACACGU
B14: target 2 MT 5'PFS UGA 3'PFS UUA (mixed)
RNA 1: B1 RNA 1
RNA 2: B1 RNA 2 with G27U, U28G, U29A, G53U, U54A
B15: target 2 MT 5'PFS UGA 3'PFS UUC (mixed)
RNA 1: B1 RNA 1
RNA 2: B1 RNA 2 with G27U, U28G, U29A, G53U, U54C
B16: target 2 MT 5'PFS GUA 3'PFS UAG (mixed)
RNA 1: B1 RNA 1
RNA 2: B1 RNA 2 with U29A, G53A, U54G
B17: target 2 MT 5'PFS GUA 3'PFS UAA (mixed)
RNA 1: B1 RNA 1
RNA 2: B1 RNA 2 with U29A, G53A, U54A
B18: target 2 MT 5'PFS UAC 3'PFS UUG (mixed)
RNA 1: B1 RNA 1
RNA 2: B1 RNA 2 with G27U, U28A, U29C, G53U, U54G
B19: target 2 MT 5'PFS UAC 3'PFS UUA (mixed)
RNA 1: B1 RNA 1
RNA 2: B1 RNA 2 with G27U, U28A, U29C, G53U, U54A
B20: target 2 MT 5'PFS GUA 3'PFS UAC (mixed)
RNA 1: B1 RNA 1
RNA 2: B1 RNA 2 with U29A, G53A, U54C
B21: target 2 MT 5'PFS UAC 3'PFS UUU (mixed)
RNA 1: B1 RNA 1
RNA 2: B1 RNA 2 with G27U, U28A, U29C, G53U
B22: target 2 MT 5'PFS GGC 3'PFS AAU (mixed)
RNA 1: B1 RNA 1
RNA 2: B1 RNA 2 with U28G, U29C, U52A, G53A
B23: target 2 MT 5'PFS AGG 3'PFS AUU (mixed)
RNA 1: B1 RNA 1
RNA 2: B1 RNA 2 with G27A, U28G, U29G, U52A, G53U
B24: target 1 A1G,A14G (mixed)
RNA 1: B2 RNA 1
RNA 2: B2 RNA 2 with A38G, U45C, G48C, A51G
B25: target 2 MT 5'PFS AAG 3'PFS UAU (mixed)
RNA 1: B1 RNA 1
RNA 2: B1 RNA 2 with G27A, U28A, U29G, G53A
B26: target 2 MT 5'PFS GUA 3'PFS GAC (mixed)
RNA 1: B1 RNA 1
RNA 2: B1 RNA 2 with U29A, U52G, G53A, U54C
B27: target 2 MT 5'PFS GUA 3'PFS GAA (mixed)
RNA 1: B1 RNA 1
RNA 2: B1 RNA 2 with U29A, U52G, G53A, U54A
B28: target 2 MT 5'PFS AAG 3'PFS UAA (mixed)
RNA 1: B1 RNA 1
RNA 2: B1 RNA 2 with G27A, U28A, U29G, G53A, U54A
B29: target 2 MT 5'PFS GGC 3'PFS AAG (mixed)
RNA 1: B1 RNA 1
RNA 2: B1 RNA 2 with U28G, U29C, U52A, G53A, U54G
B30: target 2 MT 5'PFS GCU 3'PFS AGA (mixed)
RNA 1: B1 RNA 1
RNA 2: B1 RNA 2 with U28C, U52A, U54A
B31: target 2 MT 5'PFS GGC 3'PFS AAA (mixed)
RNA 1: B1 RNA 1
RNA 2: B1 RNA 2 with U28G, U29C, U52A, G53A, U54A
B32: target 2 MT 5'PFS GCU 3'PFS AGG (mixed)
RNA 1: B1 RNA 1
RNA 2: B1 RNA 2 with U28C, U52A, U54G
B33: target 2 MT 5'PFS GGC 3'PFS AAC (mixed)
RNA 1: B1 RNA 1
RNA 2: B1 RNA 2 with U28G, U29C, U52A, G53A, U54C
B34: target 2 MT 5'PFS GCU 3'PFS CCA (mixed)
RNA 1: B1 RNA 1
RNA 2: B1 RNA 2 with U28C, U52C, G53C, U54A
B35: target 1 insA 3' of 17 (mixed)
RNA 1: B2 RNA 1
RNA 2: GGGAAUGGAUCCACAUCUACGAAUUCGUACCAUAGAAGAGGUUAUCCGCUCACCGAGAUCGGAAGAGCACACGU
B36: target 2 MT 5'PFS ACU 3'PFS UCA (mixed)
RNA 1: B1 RNA 1
RNA 2: B1 RNA 2 with G27A, U28C, G53C, U54A
B37: target 2 MT 5'PFS ACU 3'PFS UCC (mixed)
RNA 1: B1 RNA 1
RNA 2: B1 RNA 2 with G27A, U28C, G53C, U54C

target: T1, EsCas13d, nuclease-dead; experiment: crRNA (strand 1, pre-loaded); Mg2+; 40 mM Tris-HCl pH 7.5, 150 mM NaCl, 6 mM MgCl2, 1 mM DTT, 0.1% Tween-20, 0.2 mg/ml BSA; 25 C; 10 min per concentration, then washed; conditions: tags: His6-TwinStrep-SUMO cleaved; N-terminal SNAP kept (SNAP-Surface 488); label: 3' end held by stalled T7 RNA polymerase

Binder | Kd [nM]
B1 | 21 ± 2.3
B2 | 3.78 ± 0.31
B3 | 4.2 ± 1.5
B4 | 29 ± 7
B5 | 3.2 ± 0.5
B6 | 4.7 ± 1.1
B7 | 5 ± 0.4
B8 | 11 ± 2.3
B9 | 7.6 ± 1
B10 | 4.5 ± 0.5
B11 | 7.5 ± 1
B12 | 6.8 ± 0.8
B13 | 22.5 ± 1.4
B14 | 10.7 ± 1.9
B15 | 26 ± 7
B16 | 11 ± 1.8
B17 | 5.5 ± 0.6
B18 | 8 ± 1.4
B19 | 11.1 ± 2.3

Binder | Kd [nM]
B20 | 7.7 ± 0.7
B21 | 11.9 ± 1.9
B22 | 8.5 ± 0.9
B23 | 4.8 ± 0.8
B24 | 14.3 ± 0.8
B25 | 3.6 ± 0.6
B26 | 7.9 ± 1.4
B27 | 6.7 ± 2.4
B28 | 3.7 ± 0.7
B29 | 13.1 ± 2
B30 | 7.3 ± 2.1
B31 | 8.9 ± 1.5
B32 | 7.9 ± 0.8
B33 | 11.7 ± 1.4
B34 | 25 ± 12
B35 | 11.8 ± 1.3
B36 | 7.3 ± 1.7
B37 | 14.3 ± 3.5
